The source of these data is patent publication JP2017086068A (dated 2017).

In this assay the target is HA2融合ペプチドFGAIAG (Influenza A virus (A/VN/1194/04)). Nature of the assay: Pepscan peptide mapping, linear and cyclised peptides of HA A/VN/1194/04.

B1: FI6変異体2 (antibody, V domains shown)
VH: QVQLVQSGGGVVQPGRSLRLSCVASGFTFSTYAMHWVRQAPGRGLEWVAVISYDGNYKYYADSVKGRFSISRDNSNNTLHLEMNTLRTEDTALYYCAKDSQLRSLLYFEWLSQGYFDPWGQGTLVTVTS
VL: DIQMTQSPDSLAVSLGARATINCKSSQSVTFNYKNYLAWYQQKPGQPPKVLIYWASARESGVPDRFSGSGSGTDFTLTISSLQAEDVAVYYCQQHYRTPPTFGQGTKVEIK
As for B1, the binding result was “binds”.
